Article PMC5345129

How the values were obtained:
[1] = target: myc-tagged, constitutively active Gα12 (GTPase-deficient Q229L mutant) (UniProt P27600); assay: GST co-precipitation (pull-down), immunoblot bands quantified with ImageJ; details: parent: 100; read off a plot
[2] = target: GST-fusion of the RH domain of LARG (leukemia-associated RhoGEF); assay: GST co-precipitation (pull-down) from HEK293 cell extracts, immunoblot bands quantified with ImageJ; details: parent: est. 100; read off a plot
[3] = target: GST-fusion of the 257-amino acid C-terminus of AKAP-Lbc; assay: as above; details: parent: est. 100; read off a plot
[4] = target: GST-fusion of the 257-amino acid region of p114RhoGEF corresponding to the Gα12-binding region of AKAP-Lbc; assay: as above; details: parent: est. 100; read off a plot
[5] = target: GST-fusion of the 257-amino acid C-terminus of AKAP-Lbc (human); assay: pull-down; GST fusion proteins bound to Glutathione Sepharose 4B; Gα variants from high-speed supernatants of transfected HEK293 cells, detergent diluted to 0.05% polyoxyethylene-10-lauryl ether; 50 mM HEPES pH 7.5, 1 mM EDTA, 3 mM dithiothreitol, 10 mM MgSO4; 2 h at 4°C; three washes; immunoblot (anti-Gα12, anti-myc or anti-EGFP); 5% of the extract kept as load
[6] = target: T1, GST-fusion of the 257-amino acid region of p114RhoGEF corresponding to the Gα12-binding region of AKAP-Lbc (human); assay: as above
T1 sequence (Q6ZSZ5 whole entry, looked up): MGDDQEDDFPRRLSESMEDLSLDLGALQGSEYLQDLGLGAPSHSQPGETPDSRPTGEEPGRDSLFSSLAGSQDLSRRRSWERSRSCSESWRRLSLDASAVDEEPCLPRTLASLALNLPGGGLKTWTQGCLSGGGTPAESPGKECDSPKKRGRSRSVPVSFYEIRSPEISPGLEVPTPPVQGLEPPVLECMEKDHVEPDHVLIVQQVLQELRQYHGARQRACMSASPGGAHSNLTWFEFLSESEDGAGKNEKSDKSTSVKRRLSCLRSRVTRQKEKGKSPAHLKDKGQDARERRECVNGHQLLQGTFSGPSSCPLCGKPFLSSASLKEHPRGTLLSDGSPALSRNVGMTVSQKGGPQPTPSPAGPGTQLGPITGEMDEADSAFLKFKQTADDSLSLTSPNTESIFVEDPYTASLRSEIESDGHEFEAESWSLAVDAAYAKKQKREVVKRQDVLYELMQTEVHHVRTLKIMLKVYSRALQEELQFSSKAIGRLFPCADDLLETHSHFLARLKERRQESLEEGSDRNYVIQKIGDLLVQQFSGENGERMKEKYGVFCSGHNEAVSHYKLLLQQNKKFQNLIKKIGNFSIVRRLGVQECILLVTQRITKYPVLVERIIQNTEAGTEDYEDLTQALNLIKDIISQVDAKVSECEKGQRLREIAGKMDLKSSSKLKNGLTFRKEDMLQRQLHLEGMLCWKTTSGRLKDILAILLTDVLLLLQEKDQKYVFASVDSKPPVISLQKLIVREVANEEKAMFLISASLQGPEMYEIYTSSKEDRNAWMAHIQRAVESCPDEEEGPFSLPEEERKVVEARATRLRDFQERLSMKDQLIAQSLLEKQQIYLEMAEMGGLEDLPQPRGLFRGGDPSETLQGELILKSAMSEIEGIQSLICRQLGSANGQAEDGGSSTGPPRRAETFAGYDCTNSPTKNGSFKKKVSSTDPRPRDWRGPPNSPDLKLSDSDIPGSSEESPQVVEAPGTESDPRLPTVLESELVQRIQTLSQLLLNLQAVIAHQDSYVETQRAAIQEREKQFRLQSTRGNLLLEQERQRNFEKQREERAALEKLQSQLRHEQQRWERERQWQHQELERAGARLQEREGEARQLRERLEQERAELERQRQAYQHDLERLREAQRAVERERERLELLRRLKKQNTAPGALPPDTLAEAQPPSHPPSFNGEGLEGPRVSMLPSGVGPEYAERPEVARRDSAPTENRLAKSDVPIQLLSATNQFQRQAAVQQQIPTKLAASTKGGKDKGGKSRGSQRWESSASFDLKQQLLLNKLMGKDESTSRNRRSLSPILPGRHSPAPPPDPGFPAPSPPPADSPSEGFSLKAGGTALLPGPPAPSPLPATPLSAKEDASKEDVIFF

Sequence of GST-fusion of the 257-amino acid C-terminus of AKAP-Lbc (human) (Q12802 whole entry, the tested form may be a part): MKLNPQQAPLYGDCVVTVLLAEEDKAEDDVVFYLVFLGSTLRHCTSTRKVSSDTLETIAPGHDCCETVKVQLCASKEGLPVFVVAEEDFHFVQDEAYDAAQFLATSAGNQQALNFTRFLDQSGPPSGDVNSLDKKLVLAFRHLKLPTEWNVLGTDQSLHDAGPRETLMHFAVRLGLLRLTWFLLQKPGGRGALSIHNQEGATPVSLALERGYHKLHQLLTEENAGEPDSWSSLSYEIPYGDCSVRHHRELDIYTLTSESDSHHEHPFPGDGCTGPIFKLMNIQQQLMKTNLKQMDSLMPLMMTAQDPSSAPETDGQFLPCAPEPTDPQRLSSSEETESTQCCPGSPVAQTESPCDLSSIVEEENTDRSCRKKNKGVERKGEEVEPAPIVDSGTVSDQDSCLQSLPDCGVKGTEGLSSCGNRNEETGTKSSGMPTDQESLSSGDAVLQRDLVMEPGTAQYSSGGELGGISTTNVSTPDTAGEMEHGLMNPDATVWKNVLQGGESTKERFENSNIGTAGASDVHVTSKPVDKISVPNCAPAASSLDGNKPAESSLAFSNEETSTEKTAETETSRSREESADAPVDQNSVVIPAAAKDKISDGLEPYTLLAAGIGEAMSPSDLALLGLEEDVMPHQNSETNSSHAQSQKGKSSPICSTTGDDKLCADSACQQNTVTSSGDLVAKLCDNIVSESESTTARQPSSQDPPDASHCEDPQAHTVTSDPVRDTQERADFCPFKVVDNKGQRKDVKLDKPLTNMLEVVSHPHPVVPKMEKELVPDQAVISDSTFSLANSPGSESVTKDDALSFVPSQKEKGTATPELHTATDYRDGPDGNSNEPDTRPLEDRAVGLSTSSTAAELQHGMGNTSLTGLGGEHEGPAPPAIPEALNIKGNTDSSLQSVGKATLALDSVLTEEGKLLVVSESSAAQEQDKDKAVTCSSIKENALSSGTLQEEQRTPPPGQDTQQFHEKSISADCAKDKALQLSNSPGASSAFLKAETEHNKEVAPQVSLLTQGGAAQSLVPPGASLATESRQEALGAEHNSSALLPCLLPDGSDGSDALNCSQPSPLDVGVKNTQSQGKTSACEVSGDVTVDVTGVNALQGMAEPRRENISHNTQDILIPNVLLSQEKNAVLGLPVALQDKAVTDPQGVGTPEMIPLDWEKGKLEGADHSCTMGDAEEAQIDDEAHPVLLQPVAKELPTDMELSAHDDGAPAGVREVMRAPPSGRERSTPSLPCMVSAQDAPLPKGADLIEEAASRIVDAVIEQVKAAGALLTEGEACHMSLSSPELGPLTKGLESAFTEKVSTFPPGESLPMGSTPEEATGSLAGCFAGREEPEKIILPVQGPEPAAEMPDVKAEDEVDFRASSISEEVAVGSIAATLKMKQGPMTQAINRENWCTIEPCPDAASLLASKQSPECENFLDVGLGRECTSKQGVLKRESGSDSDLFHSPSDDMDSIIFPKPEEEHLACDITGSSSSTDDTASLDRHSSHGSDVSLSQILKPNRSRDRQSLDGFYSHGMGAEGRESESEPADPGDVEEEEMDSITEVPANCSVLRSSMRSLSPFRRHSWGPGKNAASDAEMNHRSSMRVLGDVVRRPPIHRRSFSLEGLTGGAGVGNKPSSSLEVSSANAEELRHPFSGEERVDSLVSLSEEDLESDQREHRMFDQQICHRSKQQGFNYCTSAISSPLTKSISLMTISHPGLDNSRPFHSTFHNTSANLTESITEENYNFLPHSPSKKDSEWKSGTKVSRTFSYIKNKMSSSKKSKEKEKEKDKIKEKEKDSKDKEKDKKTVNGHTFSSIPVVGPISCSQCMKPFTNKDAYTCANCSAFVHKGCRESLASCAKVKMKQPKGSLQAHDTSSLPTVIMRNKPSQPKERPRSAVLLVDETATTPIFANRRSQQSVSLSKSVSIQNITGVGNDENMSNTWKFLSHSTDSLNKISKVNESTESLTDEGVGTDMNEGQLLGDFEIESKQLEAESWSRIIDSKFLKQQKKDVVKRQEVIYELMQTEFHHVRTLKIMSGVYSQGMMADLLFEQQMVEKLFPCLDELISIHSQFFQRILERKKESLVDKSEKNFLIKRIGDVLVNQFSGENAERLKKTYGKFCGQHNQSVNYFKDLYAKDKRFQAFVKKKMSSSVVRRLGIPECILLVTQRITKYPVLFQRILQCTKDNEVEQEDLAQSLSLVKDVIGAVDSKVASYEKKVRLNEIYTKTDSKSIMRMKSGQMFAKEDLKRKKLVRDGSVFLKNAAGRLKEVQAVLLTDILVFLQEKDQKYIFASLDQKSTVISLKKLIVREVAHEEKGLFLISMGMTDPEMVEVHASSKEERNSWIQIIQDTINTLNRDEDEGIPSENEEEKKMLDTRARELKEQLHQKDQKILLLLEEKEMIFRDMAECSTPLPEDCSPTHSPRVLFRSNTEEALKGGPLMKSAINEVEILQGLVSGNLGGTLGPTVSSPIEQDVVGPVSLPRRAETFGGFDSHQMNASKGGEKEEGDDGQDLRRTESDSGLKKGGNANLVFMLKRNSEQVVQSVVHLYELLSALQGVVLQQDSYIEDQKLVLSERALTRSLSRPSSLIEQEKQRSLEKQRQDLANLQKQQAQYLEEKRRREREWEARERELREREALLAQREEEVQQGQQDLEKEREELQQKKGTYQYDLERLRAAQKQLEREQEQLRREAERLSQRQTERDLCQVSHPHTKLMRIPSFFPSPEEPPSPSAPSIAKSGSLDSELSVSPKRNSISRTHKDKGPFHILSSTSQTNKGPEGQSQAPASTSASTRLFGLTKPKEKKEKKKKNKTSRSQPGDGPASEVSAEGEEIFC

GST-fusion of the 257-amino acid C-terminus of AKAP-Lbc E2576R
percent of parent [1]: 29 % of control

GST-fusion of the 257-amino acid C-terminus of AKAP-Lbc E2670R
percent of parent [1]: 33 % of control

GST-fusion of the 257-amino acid region of p114RhoGEF corresponding to the Gα12-binding region of AKAP-Lbc E695R
percent of parent [1]: 42 % of control

GST-fusion of the 257-amino acid region of p114RhoGEF corresponding to the Gα12-binding region of AKAP-Lbc E789R
percent of parent [1]: 37 % of control

myc-tagged, constitutively active Gα12 (GTPase-deficient Q229L mutant) (from UniProt P27600) C11A
percent of parent (% of 12QL control) [2]: 92

myc-tagged, constitutively active Gα12 (GTPase-deficient Q229L mutant) (from UniProt P27600) Δ244-249 (sextet Asn-Ala-Ala-Ile-Arg-Ser in place of native residues 244-249)
percent of parent (% of 12QL control) [3]: 105
percent of parent (% of 12QL control) [4]: 95
percent of parent (% of 12QL control) [2]: 16

B1: myc-tagged, constitutively active Gα12 (Q229L) with C11A substitution (natural protein)
chain: MSGVVRTLSRALLPAEAGARERRAGAARDAEREARRRSRDIDALLARERRAVRRLVKILLLGAGESGKSTFLKQMRIIHGREFDQKALLEFRDTIFDNILKGSRVLVDARDKLGIPWQHSENEKHGMFLMAFENKAGLPVEPATFQLYVPALSALWRDSGIREAFSRRSEFQLGESVKYFLDNLDRIGQLNYFPSKQDILLARKATKGIVEHDFVIKKIPFKMVDVGGLRSQRQKWFQCFDGITSILFMVSSSEYDQVLMEDRRTNRLVESMNIFETIVNNKLFFNVSIILFLNKMDLLVEKVKSVSIKKHFPDFKGDPHRLEDVQRYLVQCFDRKRRNRSKPLFHHFTTAIDTENIRFVFHAVKDTILQENLKDIMLQ
% loss of binding (co-precipitated Gα12 normalized for starting material, against non-mutated Gα12 Q229L) [5]: 60%
% loss of binding (co-precipitated Gα12 normalized for starting material, against non-mutated Gα12 Q229L) [6]: 72%
